Legend:
[1] = biological target: DR 13 molecules (UniProt P01903); assay: peptide competition assay with DR 13 molecules
[2] = biological target: CS protein on PfPb transgenic sporozoites (P. falciparum CS repeats in the context of the P. berghei CS protein); assay: cell-based or functional assay

Substance: P. falciparum peptide (T* universal epitope of the CS protein)
- IC50 [1]: 1800 nM

Substance: MAB 2A10 (antibody)
- inhibition in TSNA, about 25 µg antibody [2]: 96%

Reference: US20110008383A1
